Assay results as given in paper doi:10.1101/2020.09.24.310243.
Like-named read-outs stand apart in the source and are kept apart here. Blank lines part the entries; values can stand above or below the substance they belong to.

Experiments:
[1] = biological target: E. coli DNA gyrase A2B2 complex (E. coli) (UniProt P0AES4)
[2] = biological target: [Alexa488]-QnrB1 (QnrB1-His labelled at the N-terminus with AlexaFluor 488); test: fluorescence polarisation
[3] = biological target: [Alexa488]-QnrB1 (QnrB1-His labelled at the N-terminus with AlexaFluor 488); test: fluorescence polarisation; remark: listed apart in the source
[4] = biological target: E. coli DNA gyrase A2B2 complex (E. coli) (UniProt P0AES4); remark: listed apart in the source
[5] = biological target: E. coli DNA gyrase A2B2 complex (E. coli) (UniProt P0AES4); remark: listed apart in the source
[6] = biological target: GyrB 43 kDa domain (GyrB43), N-terminal ATPase/transducer domain of E. coli GyrB (E. coli)
[7] = biological target: E. coli DNA gyrase subunit B, full-length, untagged (E. coli) (UniProt P0AES6)

Substance: AlbG with a thrombin-cleavable N-terminal hexahistidine tag (natural protein)
- rescue of gyrase supercoiling from 3.3 μM albicidin by AlbG, EC50 [1]: 1200 nM

Substance: E. coli DNA gyrase subunit B, full-length, untagged (from UniProt P0AES6 1-804) (natural protein)
- KdHi (high-affinity site of the two-site fit), with ADPNP [2]: 0.16 µM
- KdHi (high-affinity site of the two-site fit) [3]: 0.06 µM

Substance: QnrB1 with a C-terminal 6xHis tag (wild type, unlabelled) (natural protein)
- inhibition of gyrase supercoiling by QnrB1 without CFX, IC50 [4]: 11000 nM
- ATP hydrolysis rate of 50 nM gyrase A2B2 in the absence of DNA, with 5 μM QnrB1 [5]: 3 fold
- ATPase rate of 4 μM GyrB43 with 5 μM QnrB1 against no QnrB1 [6]: 17 fold
- ATPase activity of the full-length GyrB subunit with QnrB1 (not shown) [7]: < 2 fold

The next lines start with the values.

- Kd [2]: 1780 nM
- Kd [3]: 80 nM
Substance: E. coli DNA gyrase A2B2 complex (from UniProt P0AES4 1-875; P0AES6 1-804)

- Kd [2]: 18000 nM
- Kd [3]: 1670 nM
Substance: GyrB 43 kDa domain (GyrB43), N-terminal ATPase/transducer domain of E. coli GyrB (domain or fragment)
